Assay results as given in publication PMC8897147.

Biological target: SV1, splice variant of GHRHR, -Rluc8
Test: FRET or BRET

Chain of SV1, splice variant of GHRHR, -Rluc8 (Q02643 23-423, change not shown): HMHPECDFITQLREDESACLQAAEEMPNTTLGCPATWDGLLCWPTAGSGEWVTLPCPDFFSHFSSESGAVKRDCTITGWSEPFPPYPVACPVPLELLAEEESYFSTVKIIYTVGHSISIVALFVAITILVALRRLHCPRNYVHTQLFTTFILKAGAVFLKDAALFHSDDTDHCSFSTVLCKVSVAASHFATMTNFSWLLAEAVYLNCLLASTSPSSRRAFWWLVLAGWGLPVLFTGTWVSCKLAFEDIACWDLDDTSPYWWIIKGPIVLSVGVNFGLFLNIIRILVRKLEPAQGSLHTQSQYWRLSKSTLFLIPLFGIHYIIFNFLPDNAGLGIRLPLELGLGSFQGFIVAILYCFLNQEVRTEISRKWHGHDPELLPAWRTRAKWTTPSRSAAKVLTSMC
Chain of RAMP2-Ypet (receptor activity-modulating protein 2) (O60895 43-175): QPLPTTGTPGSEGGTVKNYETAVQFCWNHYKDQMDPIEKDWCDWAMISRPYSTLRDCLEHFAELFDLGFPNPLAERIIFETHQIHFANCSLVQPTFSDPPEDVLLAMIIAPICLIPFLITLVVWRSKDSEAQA

Row | Substance | BRET50 (Kd) (intensity ratio of RAMP:receptor)
1 | RAMP1-Ypet (receptor activity-modulating protein 1) (from UniProt O60894 27-148) (natural protein) | 4.4
2 | RAMP2-Ypet (receptor activity-modulating protein 2) (from UniProt O60895 43-175) (natural protein) | 2.36
